The source of these data is US20080038265A1 (published 2008).

Changes are numbered by the printed parent chain.

One may read the EC50 (read off the curve) as the concentration at which the effect is half-maximal.

B1: Ab12 41/WT (scFv)
scFv displayed on yeast: GENKVEYAPALMALSQVQLQESGPGLVKPSETLSLTCTVSGASISSYYWSWIRQPPGKGLEWIGYIYYSGSTNYNPSLKSRVTISVDTSKNQFSLKLRSVTAADTAVYYCARERLGIGDYWGQGTLVTVSSGGGGSGGGGSGGGGSDIQLTQSPSSLSASVGDRVTITCRASQGIRNDLGWYQQKPGKAPKRLIYAASSLQSGVPSRFSGSGSGTEFTLTISSLQPEDFATYYCLQHNTYPPTFGQGTKVEIK
notes: also called Ab12 scFv construct with linker 41 in the tether position and the Gly/Ser linker (WT) in the scFv linker position
B2: Ab12.118 (antibody, IgG2, V domains shown)
VH: QVQLQESGPGLVKPSETLSLTCTVSGASISSYYWSWIRQPPGKGLEWIGYIGYSGSTNYNPSLKSRVTISVDTSKNQFSLKLRSVTAADTAVYYCARERLGIGDYWGQGTLVTVSS
VL: DIQLTQSPSSLSASVGDRVTITCRASQGIRNDLGWYQQKPGKAPKRLIYAASSLQSGVPSRFSGSGSGTEFTLTISSLQPEDFATYYCLQHNTYPPTFGQGTKVEIK
B3: Ab12.120 (antibody, IgG2, V domains shown)
VH: B2 VH with G52Y, S54E
VL: B2 VL
B4: Ab12.123 (antibody, IgG2, V domains shown)
VH: B2 VH with S54E
VL: B2 VL
B5: Ab12.56 (antibody, IgG2, V domains shown)
VH: B2 VH with G52A, Y53G, S54T
VL: B2 VL
B6: Ab12.6 (antibody, V domains shown)
VH: B2 VH with Y53G, S54E
VL: B2 VL
B7: Ab12.119 (antibody, IgG2, V domains shown)
VH: B2 VH with G52Y, Y53G
VL: B2 VL
B8: Ab12.122 (antibody, IgG2, V domains shown)
VH: B2 VH with G52Y, Y53G, S54E
VL: B2 VL
B9: Ab12.121 (antibody, IgG2, V domains shown)
VH: B2 VH with Y53G
VL: B2 VL
B10: Ab12 (antibody, human IgG2, V domains shown)
VH: B2 VH with G52Y
VL: B2 VL

Sequence of human erythropoietin receptor on human erythroleukemic cells (UT-7/Epo, F36E) (human), P19235 (P19235 25-508, stated change not applied): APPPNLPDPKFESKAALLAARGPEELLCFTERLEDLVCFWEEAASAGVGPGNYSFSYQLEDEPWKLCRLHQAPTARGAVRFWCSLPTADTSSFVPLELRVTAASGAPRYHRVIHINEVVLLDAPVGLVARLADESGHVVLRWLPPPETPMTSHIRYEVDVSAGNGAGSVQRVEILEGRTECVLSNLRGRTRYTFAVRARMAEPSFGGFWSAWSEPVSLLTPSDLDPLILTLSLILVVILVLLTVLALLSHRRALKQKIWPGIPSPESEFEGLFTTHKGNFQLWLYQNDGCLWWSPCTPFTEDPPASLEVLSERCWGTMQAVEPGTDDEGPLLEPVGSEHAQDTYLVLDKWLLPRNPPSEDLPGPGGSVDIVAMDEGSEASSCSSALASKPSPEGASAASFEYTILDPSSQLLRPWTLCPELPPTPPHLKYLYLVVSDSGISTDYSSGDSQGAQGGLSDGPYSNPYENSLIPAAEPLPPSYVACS

The first experiment deals with T1, soluble EpoR (EposR) (human, UniProt P19235 25-250, limits assumed).
T1 construct: Test antigen in BIAcore and in yeast display assays; also called soluble recombinant human EpoR
T1 sequence (looked up): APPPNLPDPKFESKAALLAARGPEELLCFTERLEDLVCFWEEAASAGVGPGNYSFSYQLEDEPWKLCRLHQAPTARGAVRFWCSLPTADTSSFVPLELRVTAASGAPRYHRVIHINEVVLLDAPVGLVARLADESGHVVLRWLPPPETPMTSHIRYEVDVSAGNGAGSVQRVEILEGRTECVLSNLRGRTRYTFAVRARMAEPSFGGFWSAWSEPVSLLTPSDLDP
The experiment in a line: yeast surface display, flow cytometry: equilibrium titration of scFv-displaying yeast with soluble EpoR at 37 C, bound EposR detected with MAB307 + anti-mouse RPE. (In general: A flow cytometer gives signals particle by particle.)
Protocol: Functional cell surface protein expression was compared by incubating the transformed yeast with increasing concentrations of soluble EpoR (EposR) at 37° C.
As to B1, the “EC50 (read off the curve)” value was approximately 6 nM.

The next experiment addresses human erythropoietin receptor on human erythroleukemic cells (UT-7/Epo, F36E) (human), P19235. The experiment can be described thus: cell-based or functional assay.
The molecule B2 returned an EC50, cell proliferation assay of 1.13 nM and an Emax, cell proliferation assay of 2.65 absorbance.
The corresponding values for B3 are 0.34 nM and 2 absorbance.
Turning to B4, the EC50, cell proliferation assay amounted to 0.91 nM and the Emax, cell proliferation assay was determined as 2.7 absorbance.
B5 displayed an EC50, cell proliferation assay of 1.17 nM and an Emax, cell proliferation assay of 2.51 absorbance.
For B6, in that order: 0.58 nM and 2.81 absorbance.
For B7, in that order: 1.34 nM and 2.53 absorbance.
The corresponding values for B8 are 0.42 nM and 2.4 absorbance.
Consider B9, for which the EC50, cell proliferation assay was found to be 0.465 nM and the Emax, cell proliferation assay stood at 2.3 absorbance.
The molecule B10 came in with an EC50, cell proliferation assay of 1.29 nM and an Emax, cell proliferation assay of 1.98 absorbance.
